# Source: patent publication US10172917B2, “Targeted oesophageal administration of ZN-α2-glycoproteins (ZAG), methods and formulations thereof” (ASTON UNIVERSITY, priority 2012, dated 2019)
# How the values were obtained:
# [1] = target: T1, human β2-AR (Homo sapiens, UniProt P07550); experiment: Cyclic AMP production in CHO cells transfected with human β2-AR; format: cell-based; details: 30 min incubation
# T1 construct: expressed in transfected cells; host or cells: CHOK1 (CHO-K1) cells
# Procedure: (§1) FIG. 3C is a graphical representation of the effect of a tryptic digest of ZAG in comparison with intact ZAG on cyclic AMP production by CHO cells transfected with human β1-AR (▪), β2-AR(□) and β3-AR) ( ? ) after 30 min incubation. ZAG (1 mg) was incubated with trypsin (200 μg) in 1 ml 10 mM Tris.HCl, pH8 for 4 h at 37° C. and proteolysis was terminated by addition of the trypsin inhibitor (200 μg). High molecular weight material was removed by a Sephadex G25 column followed by dialysis using an Amicon filtration cell containing a 10 kDa cut-off membrane filter.
# (§2) CHOK1 cells transfected with human β1-, β2- and β3-AR were maintained in DMEM supplemented with 2 mM glutamine, hygromycin B (50 μgml^−1), G418 ([…]) and 10% FCS, under an atmosphere of 10% CO2 in air. For cyclic AMP production cells were grown in 24-well plates in 1 ml nutrient medium, and ZAG, after tryptic digestion as described in the legend to FIG. 3C, was incubated for 30 min. The medium was then removed and 0.5 ml of 20 mM HEPES, pH7.5, 5 mM EDTA and 0.1 mM isobutylmethylxanthine was added, followed by heating on a water bath for 5 min, and cooling on ice for 10 min. The concentration of cyclic AMP was determined using a Parameter cyclic AMP assay kit (New England Biolabs, Hitchin, Herts, UK).
# [2] = test system: BAT of ob/ob mice; details: ob/ob mice after ZAG administration; cited from earlier work
# [3] = test system: ob/ob mice; experiment: Serum metabolite and insulin levels in ob/ob mice after ZAG administration; format: in vivo, mouse; details: ob/ob mice after ZAG administration
# Source text: FCS (foetal calf serum) was from Biosera (Sussex, UK), while DMEM (Dulbecco's modified Eagles Medium) was from PAA (Somerset, UK) and Freestyle medium was purchased from Invitrogen (Paisley, UK). Hybond A nitrocellulose membranes and peroxidise—conjugated rabbit anti-mouse antibody were from GE Healthcare (Bucks, UK), while enhanced chemiluminescene (ECL) development kits were purchased from Thermo Scientific (Northumberland, UK). Mouse monoclonal antibodies to full-length human and mouse ZAG were from Santa Cruz Biotechnology (Santa Cruz, Calif. A mouse insulin ELISA kit was purchased from DRG (Marburg, Germany) and glucose measurements in both urine and plasma were made using a Boots (Nottingham, UK) glucose kit. L-[U-^14C] tyrosine (sp.act 16.7 GBqmmol^−1) was purchased from Perkin Elmer Ltd, (Cambridge, UK), while 2-[1-^14C] deoxy-D-glucose (sp.act 1.85 GBqmmol^−1) was from American Radiolabeled Chemicals (Cardiff, UK).
# Obese (ob/ob) mice (average weight 65 g) were bred in a colony, and were kept in an air conditioned room at 22+2° C. with ad libitum feeding of a rat and mouse breeding diet (Special Diet Services, Witham, UK) and tap water. […] Animals were grouped (n=5) to receive either ZAG/PBS (50 μg day^−1), or PBS in their drinking water, the experiment was repeated three times after a power analysis was performed. […] The ZAG was replaced every 48 h. One group of mice receiving ZAG were also administered propanolol (40 mgkg^−1, p.o.) daily. The dose of ZAG was chosen to be the same as that previously administered i.v. (1), so that a direct comparison could be made, between the two routes. Body weight, food and water intake, urinary glucose excretion, and body temperature, determined by the use of a rectal thermometer (RS Components, Northants, UK), were measured daily. A glucose tolerance test was performed on day 3. Animals were fasted for 12 h, followed by oral administration of glucose (1 gkg^−1 in a volume of 100 μl by gavage). Blood samples were removed from the tail vein at 15, 30, 60 and 120 min and used for the measurement of glucose. Urinary glucose was measured by collecting 0.5 ml urine and testing glucose concentration using a Boots glucose monitor. After 8 days of treatment the animals were terminated by cervical dislocation, tissues were removed and rapidly frozen in liquid nitrogen, and maintained at −80° C. Future work would be to repeat this work in diet-induced animals as alternative to a model with gene alteration, although previous studies have shown the ob/ob mouse to be a good indicator of potential human treatments. Animal studies were conducted under Home Office Licence according to the UKCCCR Guidelines for the care and use of laboratory animals.
# [4] = target: β3-AR (Homo sapiens, UniProt P13945); experiment: Cyclic AMP production in CHO cells transfected with human β3-AR; format: cell-based; parameters: expressed in transfected cells; host or cells: CHOK1 (CHO-K1) cells; details: 30 min incubation
# Chain of β3-AR (P13945 whole entry): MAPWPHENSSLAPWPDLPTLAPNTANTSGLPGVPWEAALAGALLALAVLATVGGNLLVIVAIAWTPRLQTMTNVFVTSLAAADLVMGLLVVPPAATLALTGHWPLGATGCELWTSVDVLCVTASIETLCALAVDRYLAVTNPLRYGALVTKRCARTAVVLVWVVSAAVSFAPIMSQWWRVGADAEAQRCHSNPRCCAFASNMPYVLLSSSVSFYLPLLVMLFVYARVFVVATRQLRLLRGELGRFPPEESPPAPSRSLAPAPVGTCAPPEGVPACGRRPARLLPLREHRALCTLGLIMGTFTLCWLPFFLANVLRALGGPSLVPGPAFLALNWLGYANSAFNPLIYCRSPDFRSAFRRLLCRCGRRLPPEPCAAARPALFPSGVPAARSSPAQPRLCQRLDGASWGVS
# Procedure: as §1, §2
# [5] = test system: ZAG mRNA; experiment: ZAG gene expression in mouse tissues by RT-PCR; format: in vivo; details: mice treated with ZAG orally; compared to stomach, small intestine or colon
# Procedure: Total RNA was extracted from tissues (50-120 mg) and adipocytes with Trizol. RNA samples used for real-time PCR were treated with a DNA-free kit (Ambion) to remove any genomic DNA. The RNA concentration was determined from the absorbance at 260 nm. 1 μg of total RNA of each sample was reverse transcribed to cDNA in a final volume of 20 μl by using a Reverse-iT first strand kit (ABgene). 1 μl of each cDNA sample was then amplified in a PCR mixture containing 0.02 mM of each primer and 1.1⋅Reddy Mix PCR Master Mix (ABgene) in a final volume of 25 μl. Human b-actin was used as a house keeping gene. The PCR products were sequenced commercially to confirm their identity (MWG Biotech). (7)
# Relative ZAG mRNA levels were quantified using real-time PCR with an ABI Prism 7700 Sequence Detector (Applied Biosystems). Mouse β-actin mRNA levels were similarly measured and served as the reference gene. Primers and Taqman probes were designed using PrimerExpress software (Applied Biosystems).
molecule,measurement,setting,value
"zinc-α2-glycoprotein (protein, listed as Homo sapiens, Recombinant human ZAG, a 41 kDa protein, produced by HEK293F cells transfected with pcDNA3.1 containing human ZAG) QENQDGRYSLTYIYTGLSKHVEDVPAFQALGSLNDLQFFRYNSKDRKSQPMGLWRQVEGMEDWKEDSQLQKAREDMETLKDIVEYYNDSNGSHVLQGRFGCEIENNRSSGAFWKYYYDGKDYIEFNKEIPAWVPFDPAAQITKQKWEAEPVYVQRAKAYLEEECPATLRKYLKYSKNILDRQDPPSVVVTSHQAPGEKKKLKCLAYDFYPGKIDVHWTRAGQVQEPELRGDVLHNGNGTYQSWVVVAVPPQDTAPYSCHVQHSSLAQPLVVPWEAS",cyclic AMP production,[1],stimulated
same,increase in oxygen uptake by BAT,[2],three-fold
same,serum glucose level,[3],decrease
same,serum glycerol level,[3],elevation
same,serum insulin level,[3],decrease
same,serum non-esterified fatty acids,[3],decrease
same,serum triglycerides,[3],decrease
same,cyclic AMP production,[4],stimulated
same,ZAG mRNA in oesophageal tissue,[5],dramatically increased
